Patent US20210023171A1 (published 2021)
Where a chain is given by its changes, count along the chain named. No end group written: not given here.

B1: recombinant engineered AgRP peptide 6C (FLAG and hexahistidine tagged) (peptide)
chain: DYKDDDDKGCVRLHESCLGQQVPCCDPAATCYCTGRGDEKLRCYCRHHHHHH
B2: recombinant engineered AgRP peptide 7E (FLAG and hexahistidine tagged) (peptide)
chain: B1 chain with T34V, E39D, K40N, R42K
B3: recombinant engineered AgRP peptide 7J (FLAG and hexahistidine tagged) (peptide)
chain: B1 chain with T34E, E39R, K40D, L41M, R42K
notes: also called 7J (6B); 6B
B4: Miniprotein 2.5F (synthetic, soluble) (peptide)
chain: GCPRPRGDNPPLTCSQDSDCLAGCVCGPNGFCG
notes: also called knottin peptide 2.5F; RGD-miniprotein 2.5F

Each binder was assayed against T1, αvβ3 integrin on cells (U87MG glioblastoma cells; K562-αvβ3 cells) (UniProt P06756 31-1048; P05106 27-788) (assay: cell-based or functional assay).
T1 sequence (P06756 31-1048, chain 1 of 2): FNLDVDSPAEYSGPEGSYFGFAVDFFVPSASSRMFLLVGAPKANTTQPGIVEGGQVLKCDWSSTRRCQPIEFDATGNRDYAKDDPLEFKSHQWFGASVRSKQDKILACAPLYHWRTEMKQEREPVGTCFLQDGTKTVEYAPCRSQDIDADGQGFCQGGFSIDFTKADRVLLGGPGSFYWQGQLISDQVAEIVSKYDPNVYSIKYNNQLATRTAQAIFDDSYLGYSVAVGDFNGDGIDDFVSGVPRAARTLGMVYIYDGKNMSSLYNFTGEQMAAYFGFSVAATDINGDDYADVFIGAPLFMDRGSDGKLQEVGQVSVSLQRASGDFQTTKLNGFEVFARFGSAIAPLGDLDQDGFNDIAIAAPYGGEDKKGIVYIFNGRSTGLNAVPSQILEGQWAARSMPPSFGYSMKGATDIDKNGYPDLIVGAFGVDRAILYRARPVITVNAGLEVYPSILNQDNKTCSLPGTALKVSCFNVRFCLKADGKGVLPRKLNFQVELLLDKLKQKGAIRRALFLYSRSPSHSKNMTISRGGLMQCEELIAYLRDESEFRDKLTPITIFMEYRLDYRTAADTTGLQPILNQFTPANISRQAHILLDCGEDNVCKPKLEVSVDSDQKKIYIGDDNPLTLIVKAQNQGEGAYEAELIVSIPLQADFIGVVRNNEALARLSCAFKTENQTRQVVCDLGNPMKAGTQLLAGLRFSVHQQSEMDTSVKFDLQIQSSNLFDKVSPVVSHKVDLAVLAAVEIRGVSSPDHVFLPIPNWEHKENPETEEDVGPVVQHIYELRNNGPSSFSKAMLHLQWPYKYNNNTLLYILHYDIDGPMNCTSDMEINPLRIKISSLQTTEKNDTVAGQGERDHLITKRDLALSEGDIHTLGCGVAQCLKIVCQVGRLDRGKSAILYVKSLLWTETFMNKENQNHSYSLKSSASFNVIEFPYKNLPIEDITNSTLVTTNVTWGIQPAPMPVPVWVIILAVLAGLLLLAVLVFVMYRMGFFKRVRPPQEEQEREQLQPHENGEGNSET
T1 sequence (P05106 27-788, chain 2 of 2): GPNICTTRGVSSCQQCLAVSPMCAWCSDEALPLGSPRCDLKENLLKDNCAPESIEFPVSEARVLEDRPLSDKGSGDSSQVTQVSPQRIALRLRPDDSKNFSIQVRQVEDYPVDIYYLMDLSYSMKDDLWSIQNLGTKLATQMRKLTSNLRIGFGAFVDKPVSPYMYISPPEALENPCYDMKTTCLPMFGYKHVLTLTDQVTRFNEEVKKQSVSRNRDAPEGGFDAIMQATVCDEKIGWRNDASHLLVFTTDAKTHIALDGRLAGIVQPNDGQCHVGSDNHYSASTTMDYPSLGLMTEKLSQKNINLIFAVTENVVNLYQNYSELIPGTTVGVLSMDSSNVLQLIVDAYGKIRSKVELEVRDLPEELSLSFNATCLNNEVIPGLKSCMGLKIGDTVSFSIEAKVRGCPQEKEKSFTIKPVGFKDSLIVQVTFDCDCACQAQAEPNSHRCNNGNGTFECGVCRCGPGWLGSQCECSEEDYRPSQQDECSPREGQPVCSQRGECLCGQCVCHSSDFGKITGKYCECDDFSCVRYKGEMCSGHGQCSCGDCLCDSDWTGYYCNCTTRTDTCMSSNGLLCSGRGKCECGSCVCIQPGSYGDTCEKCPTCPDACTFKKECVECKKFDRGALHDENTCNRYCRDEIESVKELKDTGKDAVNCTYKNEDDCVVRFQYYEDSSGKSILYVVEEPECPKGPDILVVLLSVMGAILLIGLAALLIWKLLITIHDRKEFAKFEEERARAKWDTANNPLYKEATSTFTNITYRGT

Binder | adhesion (IC50; nM) of K562-αvβ3 cells to vitronectin-coated wells [nM]
B1 | 650
B2 | 9.9
B3 | 200

What follows are binders tested against αvβ5 integrin (soluble / detergent-solubilized) (UniProt P06756 31-1048; P18084 24-799) (assay: yeast display, flow cytometry).
αvβ5 integrin (soluble / detergent-solubilized), sequence (P06756 31-1048, chain 1 of 2): as the sequence (P06756 31-1048, chain 1 of 2) above
αvβ5 integrin (soluble / detergent-solubilized), sequence (P18084 24-799, chain 2 of 2): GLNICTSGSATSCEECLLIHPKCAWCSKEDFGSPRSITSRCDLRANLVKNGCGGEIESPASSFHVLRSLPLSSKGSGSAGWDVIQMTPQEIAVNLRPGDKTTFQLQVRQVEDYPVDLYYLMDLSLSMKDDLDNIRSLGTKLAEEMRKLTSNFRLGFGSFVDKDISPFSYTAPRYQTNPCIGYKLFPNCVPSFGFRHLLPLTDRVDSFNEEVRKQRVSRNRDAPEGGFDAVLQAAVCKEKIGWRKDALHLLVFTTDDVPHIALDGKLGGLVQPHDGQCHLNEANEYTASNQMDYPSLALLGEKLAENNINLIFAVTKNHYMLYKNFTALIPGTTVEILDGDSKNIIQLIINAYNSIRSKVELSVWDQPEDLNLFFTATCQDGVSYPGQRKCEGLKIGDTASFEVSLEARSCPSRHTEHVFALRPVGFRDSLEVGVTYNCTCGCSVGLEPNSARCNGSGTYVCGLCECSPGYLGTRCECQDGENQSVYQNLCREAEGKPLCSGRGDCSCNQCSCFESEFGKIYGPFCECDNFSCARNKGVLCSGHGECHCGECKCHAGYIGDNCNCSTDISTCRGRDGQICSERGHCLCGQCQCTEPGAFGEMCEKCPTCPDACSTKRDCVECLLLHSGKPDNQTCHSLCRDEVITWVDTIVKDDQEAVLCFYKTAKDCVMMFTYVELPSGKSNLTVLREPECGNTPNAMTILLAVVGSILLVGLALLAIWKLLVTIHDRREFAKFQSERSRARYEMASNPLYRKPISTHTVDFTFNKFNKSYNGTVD

Binder | binding result
GCASGSGDPCLGQQVPCCDPAATCYCYGRGDNDLRCYCR (ends and bridges not checked; cysteine pairing not given here) [AgRP 7C loop 1 clone 1-1 (yeast-displayed)] | no binding (tested: 50 nM)
GCRPLGDAGCLGQQVPCCDPAATCYCYGRGDNDLRCYCR (ends and bridges not checked; cysteine pairing not given here) [AgRP 7C loop 1 clone 1-2 (yeast-displayed)] | no binding (tested: 50 nM)
GCLAGLSGPCLGQQVPCCDPAATCYCYGRGDNDLRCYCR (ends and bridges not checked; cysteine pairing not given here) [AgRP 7C loop 1 clone 1-3 (yeast-displayed)] | no binding (tested: 50 nM)
GCRSASVGGCLGQQVPCCDPAATCYCYGRGDNDLRCYCR (ends and bridges not checked; cysteine pairing not given here) [AgRP 7C loop 1 clone 1-4 (yeast-displayed)] | no binding (tested: 50 nM)
GCIASGLFGCLGQQVPCCDPAATCYCYGRGDNDLRCYCR (ends and bridges not checked; cysteine pairing not given here) [AgRP 7C loop 1 clone 1-5 (yeast-displayed)] | no binding (tested: 50 nM)
GCDLYGSHDCLGQQVPCCDPAATCYCYGRGDNDLRCYCR (ends and bridges not checked; cysteine pairing not given here) [AgRP 7C loop 1 clone 1-6 (yeast-displayed)] | no binding (tested: 50 nM)
GCVRLHESCGGSVGVECCDPAATCYCYGRGDNDLRCYCR (ends and bridges not checked; cysteine pairing not given here) [AgRP 7C loop 2 clone 2-1 (yeast-displayed)] | no binding (tested: 50 nM)
GCVRLHESCDPRVGVRCCDPAATCYCYGRGDNDLRCYCR (ends and bridges not checked; cysteine pairing not given here) [AgRP 7C loop 2 clone 2-2 (yeast-displayed)] | no binding (tested: 50 nM)
GCVRLHESCADTLMAACCDPAATCYCYGRGDNDLRCYCR (ends and bridges not checked; cysteine pairing not given here) [AgRP 7C loop 2 clone 2-3 (yeast-displayed)] | no binding (tested: 50 nM)
GCVRLHESCEWGRGGDCCDPAATCYCYGRGDNDLRCYCR (ends and bridges not checked; cysteine pairing not given here) [AgRP 7C loop 2 clone 2-4 (yeast-displayed)] | no binding (tested: 50 nM)
GCVRLHESCGSWGTLACCDPAATCYCYGRGDNDLRCYCR (ends and bridges not checked; cysteine pairing not given here) [AgRP 7C loop 2 clone 2-5 (yeast-displayed)] | no binding (tested: 50 nM)
GCVRLHESCWGSILGHCCDPAATCYCYGRGDNDLRCYCR (ends and bridges not checked; cysteine pairing not given here) [AgRP 7C loop 2 clone 2-6 (yeast-displayed)] | no binding (tested: 50 nM)
GCVRLHESCLGQQVPCCGTPKPECYCYGRGDNDLRCYCR (ends and bridges not checked; cysteine pairing not given here) [AgRP 7C loop 3 clone 3-1 (yeast-displayed)] | no binding (tested: 50 nM)
GCVRLHESCLGQQVPCCSRSDAHCYCYGRGDNDLRCYCR (ends and bridges not checked; cysteine pairing not given here) [AgRP 7C loop 3 clone 3-2 (yeast-displayed)] | no binding (tested: 50 nM)
GCVRLHESCLGQQVPCCSGLGNRCYCYGRGDNDLRCYCR (ends and bridges not checked; cysteine pairing not given here) [AgRP 7C loop 3 clone 3-3 (yeast-displayed)] | no binding (tested: 50 nM)
GCVRLHESCLGQQVPCCQGREQSCYCYGRGDNDLRCYCR [AgRP 7C loop 3 clone 3-4 (yeast-displayed)] | no binding (tested: 50 nM)
GCVRLHESCLGQQVPCCTVTNSRCYCYGRGDNDLRCYCR [AgRP 7C loop 3 clone 3-5 (yeast-displayed)] | no binding (tested: 50 nM)
GCVRLHESCLGQQVPCCTSKQHHCYCYGRGDNDLRCYCR [AgRP 7C loop 3 clone 3-6 (yeast-displayed)] | no binding (tested: 50 nM)

Each binder was assayed against T1, αvβ3 integrin on cells (U87MG …) (assay: competing off ^125I-echistatin, U87MG cells).

Binder | IC50 [nM]
GCVRLHESCLGQQVPCCDPAATCYCQYRGDGMKHCYCR (ends and bridges not checked; cysteine pairing not given here) [3F (synthesized Mini-RGD-AgRP peptide)] | 880
GCVRLHESCLGQQVPCCDPAATCYCVERGDGNRRCYCR (ends and bridges not checked; cysteine pairing not given here) [6E (synthesized Mini-RGD-AgRP peptide)] | 130
GCVRLHESCLGQQVPCCDPAATCYCESRGDVVRKCYCR (ends and bridges not checked; cysteine pairing not given here) [6F (synthesized Mini-RGD-AgRP peptide)] | 410

The binders below were run against T2, αiibβ3 integrin on K562 cells stably transfected with αiibβ3 (UniProt P08514 32-1039; P05106 27-788) (assay: titration on K562-αiibβ3 cells up to 5 µM, not saturated).
T2 construct: whole, on cells; also called K562-αiibβ3; K562-αiiβ3

Binder | Kd [nM]
B1 | > 100
B2 | > 100
B3 | > 100

The binders below were run against T3, αvβ3 integrin (soluble / detergent-solubilized) (UniProt P06756 31-1048; P05106 27-788) (assay: yeast display, flow cytometry, 50 nM integrin, gross estimate).
T3 construct: also called integrin αvβ3; soluble αvβ3 integrin
T3 sequence (P06756 31-1048, chain 1 of 2): as the sequence (P06756 31-1048, chain 1 of 2) above
T3 sequence (P05106 27-788, chain 2 of 2): as the sequence (P05106 27-788, chain 2 of 2) above

Binder | Kd [nM]
GCTIGRGDWAPSECKQDSDCLAGCVCGPNGFCG [1.5B (yeast-displayed EETI-based variant)] | ~50
GCHVGRGDWAPEECKQDSDCQAGCVCGPNGFCG [2.5A (yeast-displayed EETI-based variant)] | ~50
GCPQGRGDWAPTSCKQDSDCRAGCVCGPNGFCG [2.5D (yeast-displayed EETI-based variant)] | ~50

The binders below were run against T1, αvβ3 integrin on cells (U87MG …) (assay: direct equilibrium titration on U87MG cells, anti-His flow cytometry).

Binder | Kd [nM]
B1 | 13
B2 | 1.4
B3 | 8.3

These binders were tested against T1, αvβ3 integrin on cells (U87MG …) (assay: competition with ^125I-echistatin on U87MG cells; Cy5.5-labeled peptide).

Binder | IC50 [nM]
QCESGPCCRNCKFLKEGTICKRARGDDMDDYCNGKTCDCPRNPHKGPAT (ligand, ends and bridges not checked; also: Cy5.5-labeled, site not given here) [Cy5.5-labeled echistatin] | 2.6
{Cy5.5}-GCVTGRGDSPASSCSQDSDCLAGCVCGPNGFCG (cysteine pairing not given here, also called Cy5.5-labeled FN-RGD) [Cy5.5-labeled loop-grafted FN-RGD] | 33.9
{Cy5.5}-GCTIGRGDWAPSECSQDSDCLAGCVCGPNGFCG (cysteine pairing not given here) [Cy5.5-labeled Miniprotein 1.5B] | 6.4
{Cy5.5}-GCPQGRGDWAPTSCSQDSDCRAGCVCGPNGFCG (cysteine pairing not given here) [Cy5.5-labeled Miniprotein 2.5D] | 4.2
{Cy5.5}-GCPRPRGDNPPLTCSQDSDCLAGCVCGPNGFCG (cysteine pairing not given here) [Cy5.5-labeled Miniprotein 2.5F] | 3.4

The binders below were run against T1, αvβ3 integrin on cells (U87MG …) (assay: direct equilibrium titration on K562-αvβ3 cells, anti-His flow cytometry).

Binder | Kd [nM]
B1 | 15
B2 | 1.6
B3 | 16

What follows are binders tested against T1, αvβ3 integrin on cells (U87MG …) (assay: competition with ^125I-echistatin on U87MG cells (also express αvβ5, α5β1); unlabeled peptide).

Binder | IC50 [nM]
GCVTGRGDSPASSCSQDSDCLAGCVCGPNGFCG (also called FN-RGD2; RGD-EETI #3) [Loop-grafted FN-RGD (synthetic, soluble)] | 370
GCTIGRGDWAPSECSQDSDCLAGCVCGPNGFCG (also called RGD-miniprotein 1.5B) [Miniprotein 1.5B (synthetic, soluble)] | 13
B4 | 26
